# Experimental data from paper PMC5559466.
# Target: T1, His6-Sll0649 (OmpR family response regulator) (Synechocystis sp. PCC 6803) (UniProt P72948)
# T1 sequence: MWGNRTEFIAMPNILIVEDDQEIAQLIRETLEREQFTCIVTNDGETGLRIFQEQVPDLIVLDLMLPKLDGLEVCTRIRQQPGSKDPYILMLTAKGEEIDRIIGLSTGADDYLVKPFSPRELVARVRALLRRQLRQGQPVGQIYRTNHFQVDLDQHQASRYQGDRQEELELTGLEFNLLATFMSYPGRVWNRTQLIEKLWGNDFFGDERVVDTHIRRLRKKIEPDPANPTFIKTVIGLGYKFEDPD
# Assay: EMSA
# Conditions: EMSA: 20 mM Tris-base pH 7.9, 1 mM DTT, 10 mM MgCl2, 0.2 mg/mL BSA, 5% glycerol, 1 mg/mL poly(dI-dC), about 10 ng probe, 20 min at 25 C, 6% native PAGE
sequence,measurement,value
AGCCAGTGGCGATAAGTCAGATCCTAGACCCCGACTTTTTTCCAAAATCAGAATAAATACAAAAAAAAGCCCTCTAAAACAATGACCTTGTCCTGAAAAACTGACACAAAAATTTCATACCGTCGTCATAGCCCTGTCATACTCGTCCCCTACATTAATAAATGTCAGCCCAAGCCGTTTCTTATCGCCACTGGCT (double strand) [Pslr1204 EMSA probe],binding,no binding
